Data set [1] in a line: Porphyrin binding to apo-protein, electronic absorption spectra ((CF3)4PFe loading). How it is done: FIG. 9. Scaled absorption spectra of (CF3)4PM/PS1 complexes, M=Zn^2+, Fe^2+. Loading of (CF3)4PFe into PS1 was ˜40-50%, likely due to the extreme insolubility of the porphyrin. The featured bands at 550-650 nm indicate that (CF3)4PFe is in a homogenous environment in the ferrous state. […] The peak at 423 nm is also indicative of a homogenous binding environment. The absorption spectra were scaled to reflect the relative extinction coefficients of the porphyrins. Buffer=50 mM NaPi, 100 mM NaCl, pH 7.5.
A 2-fold excess of the cofactor (CF3)4PZn was added from a 4 mM DMSO stock solution to a 50 mM NaPi, 100 mM NaCl, pH 7.5 buffer with apo-protein (Note that final DMSO concentrations were kept <1%.). Buffer solution of apo-PS1 protein was heated for 5 minutes at 50° C., (CF3)4PZn was then added from the DMSO stock solution, the resultant mixture was vortexed for 5 seconds, and placed back in the heat block at 50° C. for 15 minutes, with vortexing every 3 minutes. The protein/cofactor solution was then spun at 14000×g in a Amicon Ultra-0.5 mL centrifuge filter for 10 min, three times, replacing the buffer to 0.5 mL after each 10 min spin. Finally, the protein solution was spun for 4 min at 12000×g in an Amicon ultrafree-MC GV filter (UFC30GV0S). The holo-PS1 sample was then used for spectroscopic experiments immediately afterward, and diluted to an appropriate concentration if necessary. […]

Data set [2] is described as follows: Analytical ultracentrifugation (equilibrium sedimentation), oligomeric state. In kind it is physicochemical. The settings on record: analytical ultracentrifugation and gel filtration. An excerpt:
FIG. 7A-7B. […] FIG. 7A: Analytical ultracentrifugation. Solutions of apo- and holo-PS1 were centrifuged at speeds ranging from 25,000 r.p.m. to 45,000 r.p.m. and monitored by absorbance at 280 nm. Parameters were globally fit to the data. Single-species fitting agrees well with the data over the entire range and yields the molecular weight of apo-PS1 […] and holo-PS1 12.24±0.91 kD, which agrees well with the 12.86 kD weight of PS1. […] Partial specific volumes were estimated from SEDNTERP^15 for amino acid side chains. FIG. 7B: Analytical gel filtration analysis of apo- and holo-PS1. Detection wavelengths are labeled as the same color as their respective curves. […] The small peak near 1.05 ml elution volume in holo-PS1 is unbound (excess), aggregated porphyrin eluting in the void volume of the superdex 75 5/150 column. Samples were run at concentrations of 100 μM and 37 μM for apo and holo, respectively, in 50 mM NaPi, 150 mM NaCl, pH 7.0 buffer.
The oligomeric state of apo- and holo-PS1 were determined by analytical equilibrium sedimentation performed at 25° C. using a Beckman XL-I analytical ultracentrifuge. Ultracentrifugation was conducted at speeds of 25K, 30K, 35K, 40K and 45K r.p.m., and the radial gradient profiles were obtained by absorbance at 280 nm. […]

The values that follow come from US20200234789A1, “DESIGNED PROTEINS FOR LIGAND BINDING” (THE REGENTS OF THE UNIVERSITY OF CALIFORNIA, priority 2017, published 2020).

B1: PS1: de novo designed porphyrin-binding four-helix bundle protein; designed sequence SEQ ID NO:1, expressed His-tag-cleaved sequence SEQ ID NO:2 (protein)
chain: SEFEKLRQTGDELVQAFQRLREIFDKGDDDSLEQVLEEIEELIQKHRQLFDNRQEAADTEAAKQGDQWVQLFQRFREAIDKGDKDSLEQLLEELEQALQKIRELAEKKN
For the molecule B1, in data set [1], the “binding of (CF3)4PFe (ferrous iron-derivative of the porphyrin)” value is recorded as “binds”. In addition, the “loading of (CF3)4PFe” value in data set [1] (50 mM NaPi, 100 mM NaCl, pH 7.5) was 40-50%. Besides, in data set [2], the “oligomeric state in solution” value is “monomeric”.
